{"source": "patent US20210403586A1", "about": "“MUTANT OF RANKL AND PHARMACEUTICAL COMPOSITION COMPRISING SAME FOR PREVENTING OR TREATING OSTEOPOROSIS” (INDUSTRY-ACADEMIC COOPERATION FOUNDATION CHOSUN UNIVERSITY, priority 2018, published 2021)", "key": {"[1]": {"tested_on": "RANKL", "test": "ELISA of serum RANKL levels", "type": "in vivo, mouse", "conditions": "wtRANKL 2.0 mg/kg s.c. to non-immunized mice, or to mice immunized with mtRANKL", "method": "A commercially available enzyme immunoassay kit (R & D Systems, Minn., USA) was used to measure RANKL levels in the serum of mice according to the manufacturer's protocol. Absorbance (450 nm) was measured in a colorimetric microplate reader (BioTek, Winooski, USA). The reading of the absorbance was then subtracted from the reading at 570 nm.\n(§1) 17-week-old […] BALB/c mice were equally divided into 3 groups. The group was divided into a negative control group in which PBS was intraperitoneally injected, a group in which only wtRANKL was injected, and a group in which wtRANKL was injected after immunization with mtRANKL for 52 days. mtRANKL was injected after mixing with an aluminum hydroxide adjuvant. The immunization process started with 1st immunization of mtRANKL at 52 days, 2nd immunization at 39 days, 3rd immunization at 14 days each before injection of wtRANKL, and a total of 3 immunizations was performed. The amount of mtRANKL was 0.2 mg per mouse.\n(§2) After 52 days, PBS was injected into the negative control group and wtRANKL was injected into the other two groups. Next day, wtRANKL was injected once more. wtRANK was subcutaneously injected (2.0 mg/kg). Serum was collected to determine the titer of anti-RANKL antibody. Then, after extracting tibias, the adhesive soft tissues of tibias were removed."}, "[2]": {"tested_on": "BMMs", "test": "Bone-resorption assay (Osteo Assay Surface plates)", "type": "cell-based, mouse", "conditions": "6 days, mRANKL-MT3 150 ng/mL", "method": "(§3) We used bone-resorption and F-actin ring formation assays to investigate osteoclast activity. To observe bone resorption in vitro, BMMs were cultured in Corning Osteo Assay Surface 96-well Multiple Well Plates (Sigma) with 30 ng/mL M-CSF and 75 ng/mL sRANKL (soluble RANKL; R&D Systems) or isolated RANKL for 6 days. Then, the plates were washed with pure water. To monitor actin ring formation, BMMs were grown on glass slides. After culture, the cells were fixed with 4% formalin, permeabilized with 0.5% Triton X100 in PBS for 5 min at room temperature, and incubated with 0.5 mg/mL TRITC-labelled phalloidin for 30 min. The cells were then rinsed with PBS. F-actin rings were visualized using a fluorescence ECLIPSE Ts2R microscope (Nikon, Tokyo, Japan)."}, "[3]": {"tested_on": "bone marrow-derived monocytes (BMMs)", "test": "TRAP analysis of osteoclastogenesis induced by RANKL variants in BMMs", "type": "cell-based, mouse", "conditions": "RANKL-treated primary BMM", "method": "The RANKL-RANK binding sites are K180, D189, R190, H223, H224, which are conserved between humans and mice. We selected 4 mutant RANKLs to be purified. Their size corresponded to the wild type RANKL (39 kDa) (FIG. 2B). Tartrate-resistant acid […] (TRAP) activity was absent for all RANKLs even at 150 ng/mL (FIG. 2C, D).\n4-week old male BALB/c mice were purchased from Orient Bio (Gwangju, Korea) and kept in an animal facility approved by the Chosun University Animal Management Committee (IACUC2017-A0002). After obtaining bone marrow cells from mice, bone marrow mononuclear cells were seeded into 96-well plates (1 Y 10^4 cells/well), and in the absence or presence of various concentrations of compounds, incubated with M-CSF (100 ng/mL) overnight before stimulation with RANKL (50 ng/well). The medium was replaced every other days. 6 days later, the cells were fixed with 4% paraformaldehyde, permeated in 0.1% Triton X-100, and washed with PBS. Then, TRAP activity (Sigma-Aldrich, St. Louis, Mo., USA) staining was performed. TRAP-positive multinuclear cells containing 5 or more nuclei were counted as osteoclasts.\nTo evaluate the effect of mtRANKL on osteoclastogenesis, TRAP analysis was performed on RANKL-treated primary bone marrow-derived macrophages (BMM) by the method described in Reference Example 2, and the results are shown in FIGS. 4B and 4C."}, "[4]": {"tested_on": "RANK and LGR4 signaling", "test": "Western blots of RANK and LGR4 signaling pathway proteins, RANKL variants", "type": "cell-based, mouse", "conditions": "BMMs, Western blot", "method": "(§4) Proteins were separated by SDS-PAGE and electropermeated into a nitrocellulose membrane (Bio-Rad). After blocking the membrane with 5% (weight/volume) skim milk in TBST [10 mM Tris (pH 7.5), 150 mM NaCl, 0.1% (vol/vol) Tween 20], each mouse serum for primary antibody in the blocking solution was examined. The membrane was washed three times with Tris buffered saline. […] peroxidase (HRP)-conjugated secondary antibody was diluted 1:5000 with TBST in 1% (wt/vol) skim milk powder. ECL_system (Amersham Pharmacia Biotech) was used as the membrane.\nPrimary antibodies: AKT (Cell Signaling Technology, 1:1000), phospho-AKT (Cell Signaling Technology, #9271S, 1:1000), p38 (Cell Signaling Technology, 9212S, 1:1000), phospho-p38 (Cell Signaling Technology, #9211S, 1:1000), ERK (Cell Signaling Technology, 9102S, 1:1000), phospho-ERK (Cell Signaling Technology, #9101S, 1:1000), JNK (Cell Signaling Technology, 9252S, 1:1000), phosphoJNK (Cell Signaling Technology, #9251S, 1:1000), GSK-3β (Cell Signaling Technology, 9315S, 1:1000), phosphoGSK-3β (Cell Signaling Technology, #9336S, 1:1000), Src (Cell Signaling Technology, 2108S, 1:1000), phosphoSrc (Cell Signaling Technology, #2105S, 1:1000), NF-KB p65 (Cell Signaling Technology, #3034, 1:1000), phosphop65 (Cell Signaling Technology, #3031, 1:1000), RANK (Cell Signaling Technology, 4845S, 1:1000), Gaq (Cell Signaling Technology, 14373S, 1:1000), LGR4 (MyBioSource, MBS468030, 1:500), 20112360C-1, and GAPDH (Santa-Cruz Biotechnology, 1:2500).\nTo investigate the interaction of mRANKL variants and RANK, the co-immunoprecipitation (Co-IP) assays were carried out using mRANKL-WT/mRANKL-MT3 and RANK/LGR4 (FIG. 12A). In addition, wild-type RANKL induced MAPK, AKT, NF-κB p65, and GSK-3 phosphorylation, which is involved in LGR4 signaling (FIG. 12B)."}, "[5]": {"tested_on": "wtRANKL-induced mouse", "test": "mtRANKL immunization in wtRANKL-induced osteoporosis mice, micro-CT", "type": "in vivo", "method": "(§5) The right femur of each mouse subjected to each experiment was incised and CT imaging was performed using a Quantum GX pCT imaging system (PerkinElmer, Hopkinton, Mass., USA) located at the Korea Basic Science Institute in Gwangju. As for the X-ray source, the field of view was set to 45 mm, 90 kV and […] (voxel size, 90 μm; scanning time, 14 minutes). CT imaging was performed using a Quantum GX 3D Viewer software. After scanning, image segmentation was performed in Analyze (AnalyzeDirect, Overland Park, Kans., USA). Briefly, the legs were segmented using semi-automatic and manual tools (e.g., object extractor, area expansion, and object separator) using volume editing tools. Then, a 3D rendering of the leg was created, and bone mineral density (BMD), bone volume (BV), bone volume percentage (%), and trabecular thickness were calculated using the ROI tools.\nas §1, §2\nTo examine whether RANKL has a bone destruction effect when RANKL was injected after immunization with mtRANKL, micro-CT analysis was performed by the method of Reference Example 6."}, "[6]": {"tested_on": "BMMs", "test": "F-actin ring formation assay", "type": "cell-based, mouse", "conditions": "mRANKL-MT3 150 ng/mL", "method": "as §3"}, "[7]": {"tested_on": "BALB/c mice", "test": "Bone destruction by injected mtRANKL, micro-CT", "type": "in vivo, mouse", "conditions": "subcutaneous 1.0 mg/kg three times a week", "method": "as §5\nTo investigate the bone-destructive effect of mtRANKL, 4-week-old male BALB/c mice (Orient Bio) were placed in a cage capable of accommodating up to 4 animals in a light-controlled environment ([…]) and provided with autoclaved water and both whole and powdered rodent diet (Purina, St. Louis, Mo., USA). Starting from 6 weeks of age, 9 mice were randomly divided into three groups, and each group was subcutaneously injected with wild-type RANKL (Amgen, Thousand Oaks, Calif., USA), mtRANKL purified in Reference Example 2, and saline three times a week (1.0 mg/kg). The trabecular bone in femoral neck was examined by Micro-CT analysis described in Reference Example 6."}, "[8]": {"tested_on": "isolated spleen cells", "test": "Th1/Th2 cytokine secretion of isolated spleen cells", "type": "cell-based, mouse", "conditions": "culture supernatant of Sham and IM splenocytes stimulated with sRANKL or mRANKL-MT3", "excerpt": "To determine whether mRANKL-MT3 immunization influences Th1 and Th2 cytokine production, we evaluated the effects of mRANKL-MT3 on IL-4 and IL-10 secretion, which are markers for Th2 responses, and IFN-γ, a marker for Th1 responses, in the culture supernatant of isolated spleen cells stimulated with sRANKL or mRANKL-MT3 (FIG. 8C)."}, "[9]": {"tested_on": "RANK and LGR4 signaling", "test": "Anti-RANKL on RANK and LGR4 signaling in BMMs", "type": "cell-based, mouse", "conditions": "Western blot, sRANKL", "method": "as §4, with “membrane. […]” for “membrane.”\nWe verified that anti-RANKL suppressed RANK and LGR4 signaling in a time-dependent manner (FIG. 13A). […] In addition, NFATc1 nuclear translocation was not detected by Western blot analysis or confocal microscopy in anti-RANKL-treated BMMs in the presence of sRANKL compared with control IgG (FIG. 13B, 13C)."}, "[10]": {"tested_on": "sRANKL-induced mice", "test": "Anti-RANKL IgGs in sRANKL-induced mice", "type": "in vivo, mouse"}, "[11]": {"conditions": "wtRANKL-injected mice vs mtRANKL-immunized mice with wtRANKL injection"}}, "note": "Entries after “also recorded” stand apart in the source; their conditions may differ."}
{"molecule": "wtRANKL: wild-type RANKL (mouse; purified, or from Amgen in Example 2) (protein, UniProt O35235 139-316, looked up) Tumor necrosis factor ligand …: FSGAPAMMEGSWLDVAQRGKPEAQPFAHLTINAASIPSGSHKVTLSSWYHDRGWAKISNMTLSNGKLRVNQDGFYYLYANICFRHHETSGSVPTDYLQLMVYVVKTSIKIPSSHNLMKGGSTKNWSGNSEFHFYSINVGGFFKLRAGEEISIQVSNPSLLDPDQDATYFGAFKVQDID", "values": [{"measurement": "level of RANKL in the blood (ELISA)", "setting": "[1]", "value": "increased"}, {"measurement": "resorption pits", "setting": "[2]", "value": "numerous resorption pits"}, {"measurement": "number of TRAP-positive multinuclear osteoclasts / osteoclast differentiation", "setting": "[3]", "value": "significantly higher; also recorded: increased the number of TRAP-positive multinucleated cells"}, {"measurement": "GSK-3 phosphorylation", "setting": "[4]", "value": "induced"}, {"measurement": "MAPK, AKT, and NF-κB p65 phosphorylation", "setting": "[4]", "value": "induced"}, {"measurement": "bone volume and percentage of bone volume", "setting": "[5]; compared with PBS-treated mice", "value": "decreased"}, {"measurement": "BMD of tibias", "setting": "[5]; [11]", "value": "738.0 ± 19.1", "unit": "mg/mL"}, {"measurement": "trabecular bone architecture of proximal tibias (micro-CT)", "setting": "[5]; [11]", "value": "fenestrated trabecular bone and thinner rods forming the trabecular bone"}, {"measurement": "F-actin ring formation", "setting": "[6]", "value": "a ring of intracellular F-actin filaments in the sealing zone"}, {"measurement": "BMD, bone volume (BV), percentage (%) of bone volume, and trabecular thickness", "setting": "[7]", "value": "remarkably reduced"}, {"measurement": "trabecular bone by Micro-CT (osteoporosis)", "setting": "[7]", "value": "mild osteoporosis was observed"}]}
{"molecule": "sRANKL: soluble RANKL; R&D Systems (protein) FSGAPAMMEGSWLDVAQRGKPEAQPFAHLTINAASIPSGSHKVTLSSWYHDRGWAKISNMTLSNGKLRVNQDGFYYLYANICFRHHETSGSVPTDYLQLMVYVVKTSIKIPSSHNLMKGGSTKNWSGNSEFHFYSINVGGFFKLRAGEEISIQVSNPSLLDPDQDATYFGAFKVQDID", "values": [{"measurement": "IFN-γ levels", "setting": "[8]", "value": "no significant differences"}, {"measurement": "IL-4 and IL-10 secretion", "setting": "[8]", "value": "significantly increased"}, {"measurement": "MAPK, AKT, src, and GSK-3β phosphorylation", "setting": "[9]", "value": "induced"}, {"measurement": "trabecular bone architecture of VOI from the distal femur (micro-CT)", "setting": "[10]; sRANKL-induced mice", "value": "mild osteoporosis"}, {"measurement": "BMD, BV/TV, and Tb.N. values", "setting": "[10]; sRANKL-induced mice, quantitative micro-CT", "value": "low"}, {"measurement": "bone histomorphometric analysis and TRAP staining of femur", "setting": "[10]; sRANKL-treated mice", "value": "an increased number of TRAPpositive osteoclasts"}, {"measurement": "circulating RANKL and CTX-1 levels", "setting": "[10]; sRANKL-treated mice sera", "value": "higher"}]}
